A short description of the test: GTF activity of strains (PAHBAH assay). The format is biochemical. Particulars: enzyme expressed in B. subtilis host. The gist of the method: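 Glucosyltransferase (GTF) activity of the bacterial strains was measured with the PAHBAH assay. The enzymes tested were truncated GTF variants produced in a Bacillus subtilis expression host. Measurements were split across three separate experiments, and each activity value is reported together with the experiment it came from because results varied slightly between experiments.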

B1: GTF0974T4: T4 C-terminal truncation of GTF0974 glucosyltransferase, SEQ ID NO: 128, strain SG1316 (protein)
chain: INGKQYYVNSDGSVRKNFVFEQDGKSYYFDAETGALATKSQDEFSTEPIKATVDFSSGNQLYKNDDKSLDQLDTFITADAWYRPKSILKDGKTWTASTEADKRPLLMVWWPDKSTQVNYLNYMQNQGLGAGSFSTNSSQESLDQAAKAVQTKIEERIAREGNTNWLRTSIDQFIKTQPGWNSSTENSSYDHLQGGQLLFNNSKGDTGNRTSHANSDYRLLNRTPTNQTGTRKYFKDNSIGGLEFLLANDIDNSNPAVQAEQLNWLHFMMNIGSIMANDPTANFDGLRVDALDNVDADLLQIASDYFKAAYGVDKSEANAIKHLSYLEAWSANDPYYNKDTKGAQLPIDNALRNALTNLLMRDKNTRMQLGDMTAFINSSLNPRGANDKNGERMANYIFTRAHDTEAQTIIQRIIRDRINPNLFGYNFTRDEIKKAFEIYNEDIDKAHKTYASYNLPSVYALMLTNKDSVTRVYYGDLYREDGHYMAKKTPYFDAIDTLLRARIKYVAGGQDMEVKKVGNDGLLTSVRYGKGANNRTDLGTSETRTQGMGVIMTNNYDFRLGSNETVTMNMGRAHRNQLYRPLLLTTKDGIATYLNDSDVPKKLLKRTDWNGNLTFNANDVFGVENVQVSGYLGVWVPYGAKANQDARTQPSNRANSDGQVYKSSAALDSQVMYEAFSNFQAFADDQPELYMNRVLAKNTDLLKAWGITSVGLPPQYVSSKDGTFLDSTIDNGYAFDDRYDMALSQNNKYGSLEDLLNVLRALHKDGIQAIADWVPDQIYNLPGKEVVNATRVNGYGNHQVGYQIIDQAYVANTRTDGTDYQGKYGGAFLDELKAKYPSIFNRVQISNGKQLPTNEKITKWSAKYFNGTNILGRGINYVLRDDKTNQYFNTSANSQLLPTPLRDTGAITSTQVFQRRGQDVYFLRDNQAVKNEFVQDGNGNWYYFGGDGKMTKGAQNINNKDYYFFDNGIQLRNALRRASNGYTYYYGLDGAMVKNAFVDFDDKHK
modifications: T4 C-terminal truncation of GTF0974
On to B1, for which the “GTF activity of strains: Acitivity” value runs as follows: (Experiment Number 2) 47.2 U/mL; (Experiment Number 3) 33.9 U/mL.

B2: GTF4991T2: T2 C-terminal truncation of GTF4991, SEQ ID NO: 150, strain SG1311 (protein)
chain: INGKQYYVNSDGSVRKNFVFEQDGKSYYFDAETGALATKSQDEFSTEPIKATVDFSSGNQLYKNDDKSLDQLDTFITADAWYRPKSILKDGKTWTASTEADKRPLLMVWWPDKSTQVNYLNYMQNQGLGAGSFSTNSSQESLDQAAKAVQTKIEERIAREGNTNWLRTSIDQFIKTQPGWNSSTENSSYDHLQGGQLLFNNSKGDTGNRTSHANSDYRLLNRTPTNQTGTRKYFKDNSIGGLEFLLANDIDNSNPAVQAEQLNWLHFMMNIGSIMANDPTANFDGLRVDALDNVDADLLQIASDYFKAAYGVDKSEANAIKHLSYLEAWSANDPYYNKDTKGAQLPIDNALRNALTNLLMRDKNTRMQLGDMTAFINSSLNPRGANDKNGERMANYIFTRAHDTEAQTIIQRIIRDRINPNLFGYNFTRDEIKKAFEIYNEDIDKAHKTYASYNLPSVYALMLTNKDSVTRVYYGDLYREDGHYMAKKTPYFDAIDTLLRARIKYVAGGQDMEVKKVGNDGLLTSVRYGKGANNRTDLGTSETRTQGMGVIMTNNYDFRLGSNETVTMNMGRAHRNQLYRPLLLTTKDGIATYLNDSDVPKNLLKRTDWNGNLTFNANDVFGVENVQVSGYLGVWVPYGAKANQDARTQPSNRANSDGQVYKSSAALDSQVMYEAFSNFQAFADDQPELYMNRVLAKNTDLLKAWGITSVGLPPQYVSSKDGTFLDSIIDNGYAFDDRYDMALSQNNKYGSLEDLLNVLRALHKDGIQAIADWVPDQIYNLPGKEVVNATRVNGYGYHQQGYQIVDQAYVANTRTDGTDYQGKYGGAFLDELKAKYPSIFNRVQISNGKQLPTNEKITKWSAKYFNGTNILGRGINFVLRDDKTNQYFNTSANSQLLPTPLRDTGAITSTQVFQRRGQDVYFLRDNQTVKNEFVQDGNGNWYYFGGDG
modifications: T2 C-terminal truncation of GTF4491
For the molecule B2, the “GTF activity of strains: Acitivity” value (Experiment Number 1) turned out to be 4.9 U/mL.

B3: GTF4991T1: T1 C-terminal truncation of GTF4991, SEQ ID NO: 148, strain SG1310 (protein)
chain: INGKQYYVNSDGSVRKNFVFEQDGKSYYFDAETGALATKSQDEFSTEPIKATVDFSSGNQLYKNDDKSLDQLDTFITADAWYRPKSILKDGKTWTASTEADKRPLLMVWWPDKSTQVNYLNYMQNQGLGAGSFSTNSSQESLDQAAKAVQTKIEERIAREGNTNWLRTSIDQFIKTQPGWNSSTENSSYDHLQGGQLLFNNSKGDTGNRTSHANSDYRLLNRTPTNQTGTRKYFKDNSIGGLEFLLANDIDNSNPAVQAEQLNWLHFMMNIGSIMANDPTANFDGLRVDALDNVDADLLQIASDYFKAAYGVDKSEANAIKHLSYLEAWSANDPYYNKDTKGAQLPIDNALRNALTNLLMRDKNTRMQLGDMTAFINSSLNPRGANDKNGERMANYIFTRAHDTEAQTIIQRIIRDRINPNLFGYNFTRDEIKKAFEIYNEDIDKAHKTYASYNLPSVYALMLTNKDSVTRVYYGDLYREDGHYMAKKTPYFDAIDTLLRARIKYVAGGQDMEVKKVGNDGLLTSVRYGKGANNRTDLGTSETRTQGMGVIMTNNYDFRLGSNETVTMNMGRAHRNQLYRPLLLTTKDGIATYLNDSDVPKNLLKRTDWNGNLTFNANDVFGVENVQVSGYLGVWVPYGAKANQDARTQPSNRANSDGQVYKSSAALDSQVMYEAFSNFQAFADDQPELYMNRVLAKNTDLLKAWGITSVGLPPQYVSSKDGTFLDSIIDNGYAFDDRYDMALSQNNKYGSLEDLLNVLRALHKDGIQAIADWVPDQIYNLPGKEVVNATRVNGYGYHQQGYQIVDQAYVANTRTDGTDYQGKYGGAFLDELKAKYPSIFNRVQISNGKQLPTNEKITKWSAKYFNGTNILGRGINFVLRDDKTNQYFNTSANSQLLPTPLRDTGAIT
modifications: T1 C-terminal truncation of GTF4491
As for B3, the “GTF activity of strains: Acitivity” value (Experiment Number 1) came out at 23.1 U/mL.

B4: GTF4336T6: T6 C-terminal truncation of GTF4336, SEQ ID NO: 146, strain SG1309 (protein)
chain: INGKQYYVNSDGSVRKNFVFEQDGKSYYFDAETGALATKSQDEFSTEPIKATVDFSSGNQLYKNDDKSLDQLDTFITADAWYRPKSILKDGKTWTASTEADKRPLLMVWWPDKSTQVNYLNYMQNQGLGAGSFSTNSSQESLDQAAKAVQTKIEERIAREGNTNWLRTSIDQFIKTQPGWNSSTENSSYDHLQGGQLLFNNSKGDTGNRTSHANSDYRLLNRTPTNQTGTRKYFKDNSIGGLEFLLANDIDNSNPAVQAEQLNWLHFMMNIGSIMANDPTANFDGLRVDALDNVDADLLQIASDYFKAAYGVDKSEANAIKHLSYLEAWSANDPYYNKDTKGAQLPIDNALRNALTNLLMRDKNTRMQLGDMTAFINSSLNPRGANDKNGERMANYIFTRAHDTEAQTIIQRIIRDRINPNLFGYNFTRDEIKKAFEIYNEDIDKAHKTYASYNLPSVYALMLTNKDSVTRVYYGDLYREDGHYMAKKTPYFDAIDTLLRARIKYVAGGQDMEVKKVGNDGLLTSVRYGKGANNRTDLGTSETRTQGMGVIMTNNYDFRLGSNETVTMNMGRAHRNQLYRPLLLTTKDGIATYFNDSDVPKNLLKRTDWNGNLTFNANDVFGVENVQVSGYLGVWVPVGAKANQDARTQPSNRANSDGQVYKSSAALDSQVMYEAFSNFQAFADDQPELYMNRVLAKNTDLLKAWGVTSVGLPPQYVSSKDGTFLDSTIDNGYAFDDRYDMALSQNNKYGSLEDLLNVLRALHKDGIQAIADWVPDQIYNLPGKEVVNATRVNGYGYHQQGYQIVDQAYVANTRTDGTDYQGKYGGAFLDELKAKYPSIFNRVQISNGKQLPTNEKITKWSAKYFNGTNILGRGINYVLRDDKTNQYFNTSANSQLLPTPLRDTGAITSTQVFQRRGQDVYFLRDNQAVKNEFVQDGNGNWYYFGADGKMTKGAQTINKKDYYFFDNGIQLRNALRRANNGYTYYYGLDGAMVKNAFVDFDDKRKQVRAFTTQG
modifications: T6 C-terminal truncation of GTF4336
With B4, the “GTF activity of strains: Acitivity” value (Experiment Number 1) stood at 28.9 U/mL.

B5: GTF4991T6: T6 C-terminal truncation of GTF4991, SEQ ID NO: 152, strain SG1312 (protein)
chain: INGKQYYVNSDGSVRKNFVFEQDGKSYYFDAETGALATKSQDEFSTEPIKATVDFSSGNQLYKNDDKSLDQLDTFITADAWYRPKSILKDGKTWTASTEADKRPLLMVWWPDKSTQVNYLNYMQNQGLGAGSFSTNSSQESLDQAAKAVQTKIEERIAREGNTNWLRTSIDQFIKTQPGWNSSTENSSYDHLQGGQLLFNNSKGDTGNRTSHANSDYRLLNRTPTNQTGTRKYFKDNSIGGLEFLLANDIDNSNPAVQAEQLNWLHFMMNIGSIMANDPTANFDGLRVDALDNVDADLLQIASDYFKAAYGVDKSEANAIKHLSYLEAWSANDPYYNKDTKGAQLPIDNALRNALTNLLMRDKNTRMQLGDMTAFINSSLNPRGANDKNGERMANYIFTRAHDTEAQTIIQRIIRDRINPNLFGYNFTRDEIKKAFEIYNEDIDKAHKTYASYNLPSVYALMLTNKDSVTRVYYGDLYREDGHYMAKKTPYFDAIDTLLRARIKYVAGGQDMEVKKVGNDGLLTSVRYGKGANNRTDLGTSETRTQGMGVIMTNNYDFRLGSNETVTMNMGRAHRNQLYRPLLLTTKDGIATYLNDSDVPKNLLKRTDWNGNLTFNANDVFGVENVQVSGYLGVWVPYGAKANQDARTQPSNRANSDGQVYKSSAALDSQVMYEAFSNFQAFADDQPELYMNRVLAKNTDLLKAWGITSVGLPPQYVSSKDGTFLDSIIDNGYAFDDRYDMALSQNNKYGSLEDLLNVLRALHKDGIQAIADWVPDQIYNLPGKEVVNATRVNGYGYHQQGYQIVDQAYVANTRTDGTDYQGKYGGAFLDELKAKYPSIFNRVQISNGKQLPTNEKITKWSAKYFNGTNILGRGINFVLRDDKTNQYFNTSANSQLLPTPLRDTGAITSTQVFQRRGQDVYFLRDNQTVKNEFVQDGNGNWYYFGGDGKMTKGAQNINSKDYYFFDNGVQLRNALRRASNGYTYYYGLDGAMVKNAFVDFDDKHKQVRAFTTQG
modifications: T6 C-terminal truncation of GTF4491
For B5, under “Experiment Number 1”, the “GTF activity of strains: Acitivity” value was 1.7 U/mL.

These data come from patent US20180049457A1, “ENZYMATIC SYNTHESIS OF SOLUBLE GLUCAN FIBER” (E I DU PONT DE NEMOURS AND COMPANY, priority 2014, published 2018).
